In patent US20100285506A1:

Experiments:
[1] = biological target: MPT64 (Mycobacterium tuberculosis); test: CAPILIA TB kit; pretreated patient sputum, sample number 7, smear 3+
[2] = biological target: MPT64 (Mycobacterium tuberculosis); test: CAPILIA TB kit; pretreated patient sputum, sample number 6, smear 3+
[3] = biological target: MPT64 (Mycobacterium tuberculosis); test: CAPILIA TB kit; pretreated patient sputum, sample number 1, smear +
[4] = biological target: MPT64 (Mycobacterium tuberculosis); test: CAPILIA TB kit; pretreated patient sputum, sample number 3, smear +
[5] = biological target: MPT64 (Mycobacterium tuberculosis); test: CAPILIA TB kit; pretreated patient sputum, sample number 8, smear 3+
[6] = biological target: MPT64 (Mycobacterium tuberculosis); test: CAPILIA TB kit; pretreated patient sputum, sample number 5, smear 2+
[7] = biological target: MPT64 (Mycobacterium tuberculosis); test: CAPILIA TB kit; pretreated patient sputum, sample number 2, smear +
[8] = biological target: MPT64 (Mycobacterium tuberculosis); test: CAPILIA TB kit; pretreated patient sputum, sample number 4, smear 2+

Measured: Absorbance

CAPILIA TB (trade name; manufactured by TAUNS LABORATORIES INC.)
23: [5]
0: all other assays above
